Results taken from paper PMC4383751 (Protein & Cell, 2015).

What was measured:
[1] = biological target: the molecule itself; test: crystal structure; crystals grown at 18°C by hanging-drop vapor diffusion, protein 15-20 mg/mL, in the absence of FBP (malonate for K305Q, L-proline for Y105E)
[2] = biological target: the molecule itself; test: cell-based or functional assay
[3] = biological target: the molecule itself; test: SEC; gel filtration on Superdex 200 10/300 GL, in the presence of FBP; similar protein concentrations and conditions for all proteins

B1: PKM2^K305Q (acetylation mimic of K305) (enzyme)
chain: not shown
[1]
  stoichiometry N: 4
[2]
  normalized kcat/Km of pyruvate kinase activity (PKM2^WT as standard) in the presence of FBP: 0.2 relative to kcat/Km of PKM2^WT
[3]
  stoichiometry N: 2

B2: PKM2^K422R (a patient-derived mutation) (enzyme)
chain: not shown
[3]
  stoichiometry N: 4

B3: PKM2^Y105E (phosphorylation mimic of Y105) (enzyme)
chain: not shown
[1]
  stoichiometry N: 4

B4: PKM2^R399E (a dimeric mutant) (enzyme)
chain: not shown
[1]
  stoichiometry N: 4
